Molecular target: Toxin B (Clostridium difficile, UniProt P18177 1-2366)
Assay: SPR (single cycle kinetics, 1:1 model); […] (pH not stated); […]; SPR temperature not stated
Settings: protein: commercial

Toxin B, sequence (P18177 whole entry): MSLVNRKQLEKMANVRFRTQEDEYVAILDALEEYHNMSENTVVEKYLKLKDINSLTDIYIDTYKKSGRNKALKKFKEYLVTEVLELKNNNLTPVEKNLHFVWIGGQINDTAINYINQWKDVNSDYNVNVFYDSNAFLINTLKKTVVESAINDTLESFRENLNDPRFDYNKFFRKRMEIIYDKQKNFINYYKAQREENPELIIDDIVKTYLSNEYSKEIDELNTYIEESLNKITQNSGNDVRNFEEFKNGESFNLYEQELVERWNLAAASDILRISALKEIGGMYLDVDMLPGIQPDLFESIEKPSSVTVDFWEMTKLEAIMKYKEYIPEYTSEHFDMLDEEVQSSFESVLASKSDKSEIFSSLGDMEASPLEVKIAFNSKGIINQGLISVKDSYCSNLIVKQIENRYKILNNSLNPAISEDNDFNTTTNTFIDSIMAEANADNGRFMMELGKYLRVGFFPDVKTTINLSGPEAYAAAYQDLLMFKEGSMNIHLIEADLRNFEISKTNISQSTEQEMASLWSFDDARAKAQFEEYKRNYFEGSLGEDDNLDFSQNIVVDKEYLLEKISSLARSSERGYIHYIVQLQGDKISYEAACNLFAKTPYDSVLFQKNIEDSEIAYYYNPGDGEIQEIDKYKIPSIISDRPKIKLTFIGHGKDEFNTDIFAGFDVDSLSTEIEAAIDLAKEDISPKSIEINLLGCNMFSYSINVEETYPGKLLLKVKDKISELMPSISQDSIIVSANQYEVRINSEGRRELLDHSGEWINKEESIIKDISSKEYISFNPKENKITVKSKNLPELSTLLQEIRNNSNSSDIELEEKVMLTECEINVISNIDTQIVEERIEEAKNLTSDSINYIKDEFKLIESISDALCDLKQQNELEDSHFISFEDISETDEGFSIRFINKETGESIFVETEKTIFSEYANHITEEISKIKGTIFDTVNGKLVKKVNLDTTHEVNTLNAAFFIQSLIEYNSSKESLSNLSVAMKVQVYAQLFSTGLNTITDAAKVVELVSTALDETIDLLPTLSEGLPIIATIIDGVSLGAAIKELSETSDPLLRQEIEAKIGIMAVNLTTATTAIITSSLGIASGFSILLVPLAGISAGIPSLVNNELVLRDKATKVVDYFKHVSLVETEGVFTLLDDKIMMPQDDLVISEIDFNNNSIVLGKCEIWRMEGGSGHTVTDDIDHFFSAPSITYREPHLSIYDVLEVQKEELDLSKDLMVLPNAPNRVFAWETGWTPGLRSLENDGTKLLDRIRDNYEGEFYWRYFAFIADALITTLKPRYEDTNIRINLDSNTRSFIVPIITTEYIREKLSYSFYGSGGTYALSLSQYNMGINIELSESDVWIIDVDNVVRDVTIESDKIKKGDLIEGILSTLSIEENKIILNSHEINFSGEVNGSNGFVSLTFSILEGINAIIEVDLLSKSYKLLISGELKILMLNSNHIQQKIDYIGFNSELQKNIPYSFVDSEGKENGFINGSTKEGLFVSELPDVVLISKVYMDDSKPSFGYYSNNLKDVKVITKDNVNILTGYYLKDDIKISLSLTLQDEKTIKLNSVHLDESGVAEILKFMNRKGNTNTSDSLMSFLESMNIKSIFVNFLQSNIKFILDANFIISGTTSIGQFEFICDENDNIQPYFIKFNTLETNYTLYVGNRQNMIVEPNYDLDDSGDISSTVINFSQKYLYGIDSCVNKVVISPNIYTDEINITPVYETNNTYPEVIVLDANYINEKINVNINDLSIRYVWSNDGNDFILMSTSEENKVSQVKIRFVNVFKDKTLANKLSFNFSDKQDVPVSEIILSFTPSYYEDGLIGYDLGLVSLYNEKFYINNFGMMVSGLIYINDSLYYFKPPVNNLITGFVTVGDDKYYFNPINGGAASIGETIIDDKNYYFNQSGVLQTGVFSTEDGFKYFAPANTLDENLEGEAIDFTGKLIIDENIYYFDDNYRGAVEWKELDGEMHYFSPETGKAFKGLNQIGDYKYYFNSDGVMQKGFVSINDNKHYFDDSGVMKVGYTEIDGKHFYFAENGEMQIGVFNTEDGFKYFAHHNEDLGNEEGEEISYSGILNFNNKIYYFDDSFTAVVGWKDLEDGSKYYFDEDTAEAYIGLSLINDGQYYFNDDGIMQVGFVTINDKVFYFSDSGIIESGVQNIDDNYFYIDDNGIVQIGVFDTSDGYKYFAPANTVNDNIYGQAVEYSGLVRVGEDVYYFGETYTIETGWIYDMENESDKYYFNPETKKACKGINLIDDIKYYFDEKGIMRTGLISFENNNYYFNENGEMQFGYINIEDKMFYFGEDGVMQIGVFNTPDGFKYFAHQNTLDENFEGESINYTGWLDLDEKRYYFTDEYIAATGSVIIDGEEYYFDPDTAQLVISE

B1: R12.69 (SPR) (ssDNA)
DNA: TGTACCGTCTGAGCGATTCGTACCCTCGCTAATGCTGCTTGATGTGTGGCCTCGAATAGCCAGTCAGTGTTAAGGAGTGC
modifications: 5'-amino-C6
With B1 the Kd was 47.3 ± 13.7 nM.

Reference: publication PMC4334984, “In Vitro Selection of a Single-Stranded DNA Molecular Recognition Element against Clostridium difficile Toxin B and Sensitive Detection in Human Fecal Matter”
